Assay results published in patent publication US20060041111A1 (published 2006).
One block for each binder: values may come before it.

Tests used:
[1] = biological target: T1, DOS+SSB P>L (DOS+SSB with the proline to leucine mutation at amino acid 1718), epitope tagged (human, UniProt Q8N1I0 1-1966); assay: GST pull-down, lysate in SDS containing RIPA buffer
T1 construct: Used as lysate of transfected cells; also called DOS+SSB with proline mutation; DOS with the proline mutation
Protocol: (§1) In transient expression studies, with epitope tagged DOS constructs in both 293T cell and COS cells, a protein of the expected size is readily detected after cell lysis with buffers containing detergents, such as RIPA.
(§2) After incubating epitope tagged DOS lysates in SDS containing RIPA buffer with beads carrying GST-Crk-N terminal SH3 domain, DOS+SSB and DOS−SSB was “pulled down”. […] No binding to DOS−SSB was observed. […] The proline rich, C terminus of DOS engages with Src and Crk and the loss of Crk binding is seen in human cancer. Furthermore, no binding to SH3 domain of Abl and Crk-C terminus was observed.

[2] = biological target: T2, DOS+SSB (human DOS protein of 1966 amino acids, with Src SH3 domain binding site), epitope tagged (human, UniProt Q8N1I0 1-1966); assay: pull-down with SH3 domains
T2 construct: Full-length isoform cloned in pcDNA3.1, transiently expressed in 293T or COS cells and used as cell lysate in RIPA buffer; also called DOCK 3; Deleted in Osteosarcoma
Protocol: as §1, §2

GST-Src SH3 domain = GST-Src SH3 domain (UniProt P12931 84-145); assay: GST pull-down, lysate in SDS containing RIPA buffer
Protocol: as §1, §2

binding result [1]: no binding
B1: GST-Crk-N terminal SH3 domain (other, UniProt P46108 132-192, looked up)
chain: EEAEYVRALFDFNGNDEEDLPFKKGDILRIRDKPEEQWWNAEDSEGKRGMIPVPYVEKYRP
notes: domain: N terminal SH3 domain; GST fusion on beads for the pull-down; also called adaptor protein Crk; not shown: glutathione S-transferase (GST) fusion partner

binding result [2]: no binding
B2: SH3 domain of Crk-C terminus (other, UniProt P46108 235-296, looked up)
chain: NGPIYARVIQKRVPNAYDKTALALEVGELVKVTKINVSGQWEGECNGKRGHFPFTHVRLLDQ
notes: domain: SH3 domain of Crk-C terminus

binding result (GST-Src SH3 domain): no binding
B3: DOS-SSB (alternatively spliced human DOS protein of 1928 amino acids, without Src SH3 domain binding site), epitope tagged (other, not shown: small tags and cut ends)
chain: MWIPTEHEKYGVVIASFRGTVPYGLSLEIGDTVQILEKCDGWYRGFALKNPNIKGIFPSSYVHLKNACVKNKGQFEMVIPTEDSVITEMTSTLRDWGTMWKQLYVRNEGDLFHRLWHIMNEILDLRRQVLVGHLTHDRMKDVKRHITARLDWGNEQLGLDLVPRKEYAMVDPEDISITELYRLMEHRHRKKDTPVQASSHHLFVQMKSLMCSNLGEELEVIFSLFDSKENRPISERFFLRLNRNGLPKAPDKPERHCSLFVDLGSSELRKDIYITVHIIRIGRMGAGEKKNACSVQYRRPFGCAVLSIADLLTGETKDDLILKVYMCNTESEWYQIHENIIKKLNARYNLTGSNAGLAVSLQLLHGDIEQIRREYSSVFSHGVSITRKLGFSNIIMPGEMRNDLYITIERGEFEKGGKSVARNVEVTMFIVDSSGQTLKDFISFGSGEPPASEYHSFVLYHNNSPRWSELLKLPIPVDKFRGAHIRFEFRHCSTKEKGEKKLFGFSFVPLMQEDGRTLPDGTHELIVHKCEENTNLQDTTRYLKLPFSKGIFLGNNNQAMKATKESFCITSFLCSTKLTQNGDMLDLLKWRTHPDKITGCLSKLKEIDGSEIVKFLQDTLDTLFGILDENSQKYGSKVFDSLVHIINLLQDSKFHHFKPVMDTYIESHFAGALAYRDLIKVLKWYVDRITEAERQEHIQEVLKAQEYIFKYIVQSRRLFSLATGGQNEEEFRCCIQELLMSVRFFLSQESKGSGALSQSQAVFLSSFPAVYSELLKLFDVREVANLVQDTLGSLPTILHVDDSLQAIKLQCIGKTVESQLYTNPDSRYILLPVVLHHLHIHLQEQKDLIMCARILSNVFCLIKKNSSEKSVLEEIDVIVASLLDILLRTILEITSRPQPSSSAMRFQFQDVTGEFVACLLSLLRQMTDRHYQQLLDSFNTKEELRDFLLQIFTVFRILIRPEMFPKDWTVMRLVANNVIITTVLYLSDALRKNFLNENFDYKIWDSYFYLAVIFINQLCLQLEMFTPSKKKKVLEKYGDMRVTMGCEIFSMWQNLGEHKLHFIPALIGPFLEVTLIPQPGLRNVMIPIFHDMMDWEQRRSGNFKQVEAKLIDKLDSLMSEGKGDETYRELFNSILLKKIERETWRESGVSLIATVTRLMERLLDYRDCMKMGEVDGKKIGCTVSLLNFYKTELNKEEMYIRYIHKLYDLHLKAQNFTEAAYTLLLYDELLEWSDRPLREFLTYPMQTEWQRKEHLHLTIIQNFDRGKCWENGIILCRKIAEQYESYYDYRNLSKMRMMEASLYDKIMDQQRLEPEFFRVGFYGKKFPFFLRNKEFVCRGHDYERLEAFQQRMLNEFPHAIAMQHANQPDETIFQAEAQYLQIYAVTPIPESQEVLQREGVPDNIKSFYKVNHIWKFRYDRPFHKGTKDKENEFKSLWVERTSLYLVQSLPGISRWFEVEKREVVEMSPLENAIEVLENKNQQLKTLISQCQTRQMQNINPLTMCLNGVIDAAVNGGVSRYQEAFFVKEYILSHPEDGEKIARLRELMLEQAQILEFGLAVHEKFVPQDMRPLHKKLVDQFFVMKSSLGIQEFSACMQASPVHFPNGSPRVCRNSAPASVSPDGTRVIPRRSPLSYPAVNRYSSSSLSSQASAEVSNITGQSESSDEVFNMQPSPSTSSLSSTHSASPNVTSSAPSSARASPLLSDKHKHSRENSCLSPRERPCSAIYPTPVEPSQRMLFNHIGDGALPRSDPNLSAPEKASPARHTTSVSPSPAGRSPLKGSVQSFTPSPVEYHSPGLISNSPVLSGSYSSGISSLSRCSTSETSGFENQVNEQSAPLPVPVPVPVPSYGGEEPVRKESKTPPPYSVYERTLRRPVPLPHSLSIPVTSEPPALPPKPLAARSSHLENGARRTDPGPRPRPLPRKVSQL
notes: Used as lysate of transfected cells
